These results are taken from publication PMC10812545, “The Binding of HSPA8 and Mitochondrial ALDH2 Mediates Oxygen-Glucose Deprivation-Induced Fibroblast Senescence” (Antioxidants, 2023).

This data set concerns the molecule itself. Description: cross-linking; DSS 500 μM, 30 min at room temperature, quenched with 10 mM Tris; NIH3T3 cells (CON, OGD, siHSPA8); Western blot for ALDH2. In general terms: Immunoblotting shows a protein as a band on a membrane.

“And” between values parts separate entries of the source, which are not always exact repeats. Equal values may be shown once.

B1: Aldehyde dehydrogenase 2 (ALDH2) (enzyme, mouse (endogenous in NIH3T3), UniProt P47738 20-519, looked up)
chain: SAAATSAVPAPNHQPEVFCNQIFINNEWHDAVSRKTFPTVNPSTGEVICQVAEGNKEDVDKAVKAARAAFQLGSPWRRMDASDRGRLLYRLADLIERDRTYLAALETLDNGKPYVISYLVDLDMVLKCLRYYAGWADKYHGKTIPIDGDFFSYTRHEPVGVCGQIIPWNFPLLMQAWKLGPALATGNVVVMKVAEQTPLTALYVANLIKEAGFPPGVVNIVPGFGPTAGAAIASHEGVDKVAFTGSTEVGHLIQVAAGSSNLKRVTLELGGKSPNIIMSDADMDWAVEQAHFALFFNQGQCCCAGSRTFVQENVYDEFVERSVARAKSRVVGNPFDSRTEQGPQVDETQFKKILGYIKSGQQEGAKLLCGGGAAADRGYFIQPTVFGDVKDGMTIAKEEIFGPVMQILKFKTIEEVVGRANDSKYGLAAAVFTKDLDKANYLSQALQAGTVWINCYDVFGAQSPFGGYKMSGSGRELGEYGLQAYTEVKTVTVKVPQKNS
notes: Aldehyde dehydrogenase 2, mitochondrial, endogenous in the mouse fibroblast line NIH3T3; Seen as dimer and tetramer after DSS cross-linking; also called mitochondrial ALDH2; mitochondrial aldehyde dehydrogenase; source: endogenous, NIH3T3 lysate
Consider B1, for which the “stoichiometry N” value was 2 and 4.

As usually defined, the stoichiometry N is a count of units in the complex or per binding partner.
